According to paper PMC5758903:

Assays:
HisTag-PCNA [1] = target: T1, HisTag-PCNA (human, UniProt P12004 1-261); test: pull-down
[2] = target: PCNA (tag-free);DNA polymerase delta (human;human, UniProt P12004;P28340;P49005;Q15054;Q9HCU8 1-261;1-1107;1-469;1-466;1-107, |); test: EMSA
HisTag-PCNA [3] = target: T1, HisTag-PCNA; test: ITC
DNA polymerase delta = DNA polymerase delta (human, UniProt P28340;P49005;Q15054;Q9HCU8 1-1107;1-469;1-466;1-107); test: EMSA
HisTag-PCNA [4] = target: T1, HisTag-PCNA; test: pull-down titration

T1 sequence (P12004 whole entry): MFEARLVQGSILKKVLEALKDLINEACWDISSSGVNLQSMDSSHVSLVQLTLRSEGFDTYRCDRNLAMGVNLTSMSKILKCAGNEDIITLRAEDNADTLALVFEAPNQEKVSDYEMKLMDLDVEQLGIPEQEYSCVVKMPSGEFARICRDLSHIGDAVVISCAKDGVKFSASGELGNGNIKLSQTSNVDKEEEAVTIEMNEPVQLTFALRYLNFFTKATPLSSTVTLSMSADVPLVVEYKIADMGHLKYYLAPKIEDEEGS
Sequence of DNA polymerase delta (P28340 whole entry, stated change not applied, chain 1 of 4): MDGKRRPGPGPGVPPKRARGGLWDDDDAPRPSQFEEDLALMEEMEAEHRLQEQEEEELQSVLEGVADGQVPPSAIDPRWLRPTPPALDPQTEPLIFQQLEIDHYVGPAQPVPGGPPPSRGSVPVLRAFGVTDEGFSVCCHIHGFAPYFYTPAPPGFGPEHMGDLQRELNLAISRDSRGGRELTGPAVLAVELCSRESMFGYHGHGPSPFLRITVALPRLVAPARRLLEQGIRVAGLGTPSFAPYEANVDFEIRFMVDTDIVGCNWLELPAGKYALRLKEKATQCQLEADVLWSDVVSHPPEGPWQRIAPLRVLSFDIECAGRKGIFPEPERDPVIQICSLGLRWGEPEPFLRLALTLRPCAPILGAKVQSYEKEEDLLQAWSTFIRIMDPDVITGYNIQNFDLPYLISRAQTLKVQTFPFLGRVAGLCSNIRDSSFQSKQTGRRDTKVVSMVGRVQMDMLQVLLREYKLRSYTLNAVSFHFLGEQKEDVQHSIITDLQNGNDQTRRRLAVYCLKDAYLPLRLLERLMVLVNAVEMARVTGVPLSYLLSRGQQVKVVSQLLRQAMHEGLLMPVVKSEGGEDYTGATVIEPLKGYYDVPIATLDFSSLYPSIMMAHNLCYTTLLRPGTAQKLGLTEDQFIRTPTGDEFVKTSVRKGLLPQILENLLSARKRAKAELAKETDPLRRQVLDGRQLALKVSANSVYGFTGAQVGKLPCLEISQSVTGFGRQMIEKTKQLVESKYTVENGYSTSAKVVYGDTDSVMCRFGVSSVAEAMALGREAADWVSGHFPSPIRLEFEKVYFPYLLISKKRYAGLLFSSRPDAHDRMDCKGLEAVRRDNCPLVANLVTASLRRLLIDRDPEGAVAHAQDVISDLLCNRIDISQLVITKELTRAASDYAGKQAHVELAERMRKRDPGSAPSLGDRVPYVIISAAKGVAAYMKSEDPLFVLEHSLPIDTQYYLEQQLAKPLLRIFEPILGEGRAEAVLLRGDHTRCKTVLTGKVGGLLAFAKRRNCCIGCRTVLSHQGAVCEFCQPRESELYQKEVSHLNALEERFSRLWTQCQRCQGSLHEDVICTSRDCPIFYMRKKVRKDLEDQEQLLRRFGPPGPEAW
Sequence of DNA polymerase delta (P49005 whole entry, stated change not applied, chain 2 of 4): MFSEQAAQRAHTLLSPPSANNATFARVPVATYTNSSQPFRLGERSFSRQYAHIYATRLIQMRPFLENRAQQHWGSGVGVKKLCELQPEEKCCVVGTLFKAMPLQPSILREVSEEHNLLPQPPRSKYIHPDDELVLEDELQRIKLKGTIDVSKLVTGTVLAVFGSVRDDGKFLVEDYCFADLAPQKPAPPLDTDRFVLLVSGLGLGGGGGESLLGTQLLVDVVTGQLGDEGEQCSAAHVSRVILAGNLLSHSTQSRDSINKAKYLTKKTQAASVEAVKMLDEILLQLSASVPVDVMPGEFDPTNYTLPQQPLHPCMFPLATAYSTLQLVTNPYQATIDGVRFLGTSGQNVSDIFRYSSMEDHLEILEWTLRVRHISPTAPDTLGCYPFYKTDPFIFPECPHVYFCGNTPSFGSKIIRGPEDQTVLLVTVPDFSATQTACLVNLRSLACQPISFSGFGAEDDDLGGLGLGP
Sequence of DNA polymerase delta (Q15054 whole entry, stated change not applied, chain 3 of 4): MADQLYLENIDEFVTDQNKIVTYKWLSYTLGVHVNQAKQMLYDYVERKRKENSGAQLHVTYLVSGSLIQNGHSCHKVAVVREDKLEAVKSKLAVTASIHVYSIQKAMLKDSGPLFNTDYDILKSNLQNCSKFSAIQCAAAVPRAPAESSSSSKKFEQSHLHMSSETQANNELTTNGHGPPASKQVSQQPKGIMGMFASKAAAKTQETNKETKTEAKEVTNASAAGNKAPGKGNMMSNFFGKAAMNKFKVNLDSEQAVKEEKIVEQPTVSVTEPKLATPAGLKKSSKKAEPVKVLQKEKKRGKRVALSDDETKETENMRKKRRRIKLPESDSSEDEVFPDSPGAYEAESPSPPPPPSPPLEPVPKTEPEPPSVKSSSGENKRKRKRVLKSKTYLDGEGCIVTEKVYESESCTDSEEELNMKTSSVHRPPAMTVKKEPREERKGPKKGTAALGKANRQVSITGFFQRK
Sequence of DNA polymerase delta (Q9HCU8 whole entry, stated change not applied, chain 4 of 4): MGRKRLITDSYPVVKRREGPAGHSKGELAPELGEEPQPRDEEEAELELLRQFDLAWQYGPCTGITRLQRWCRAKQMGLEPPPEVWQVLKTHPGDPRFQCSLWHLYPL

Row | Binder | binding result (HisTag-PCNA [1]) | binding result [2] | Kd (HisTag-PCNA [3]) | binding result (DNA polymerase delta) | Kd (HisTag-PCNA [4])
1 | CATGCTTCCCCAGGGAGATGCCTATGGTCCCCGCGTAGG (structured_DNA) [A1 -40/3'] | no binding | – | – | – | –
2 | Ref aptamer (ssDNA) DNA: ACTGACTGACTGACTGACTGACTGACTGACTGACTGACTGACTGACTGACTGACTGACTGACTGACTGACTGACTGACT | no binding | – | – | – | –
3 | CATGCTTCCCCAGGGAGATGCCTATGGTCCCCGCGTAGGTGGCAGCTCA (structured_DNA) [alpha-PCNA aptamer (A1 -30/3')] | – | binds | 2 ± 0.64 µM | no binding | 5.1 ± 0.59 µM
4 | A1 -20/5' (structured_DNA) DNA: CCTATGGTCCCCGCGTAGGTGGCAGCTCAAACCCGATTCGAGGAACATGCGTCGCAAAC | no binding | – | – | – | –
